The values that follow are results of earlier work, collected in publication PMC7290751.

A word on the Kd: it is the concentration at which binding is half-saturated.

One data set addresses Kv1.3 (Homo sapiens) (UniProt P22001).
In another data set the target is Kv1.2 (Homo sapiens) (UniProt P16389).
Chain of UniProt P16389 (P16389 whole entry): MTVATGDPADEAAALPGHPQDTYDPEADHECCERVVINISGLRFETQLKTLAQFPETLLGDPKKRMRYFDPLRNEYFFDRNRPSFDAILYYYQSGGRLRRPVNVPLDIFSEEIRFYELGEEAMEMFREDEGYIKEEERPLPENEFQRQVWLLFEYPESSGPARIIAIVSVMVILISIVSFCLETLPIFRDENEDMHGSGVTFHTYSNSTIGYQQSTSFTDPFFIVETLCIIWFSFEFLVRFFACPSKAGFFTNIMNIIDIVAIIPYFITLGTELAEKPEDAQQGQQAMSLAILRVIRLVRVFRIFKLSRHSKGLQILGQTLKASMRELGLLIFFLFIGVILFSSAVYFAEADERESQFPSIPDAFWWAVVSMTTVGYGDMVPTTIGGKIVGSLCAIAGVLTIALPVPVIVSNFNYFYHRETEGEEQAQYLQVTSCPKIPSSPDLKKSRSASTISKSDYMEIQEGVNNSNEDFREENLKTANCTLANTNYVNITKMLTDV

Chain of UniProt P22001 (P22001 whole entry): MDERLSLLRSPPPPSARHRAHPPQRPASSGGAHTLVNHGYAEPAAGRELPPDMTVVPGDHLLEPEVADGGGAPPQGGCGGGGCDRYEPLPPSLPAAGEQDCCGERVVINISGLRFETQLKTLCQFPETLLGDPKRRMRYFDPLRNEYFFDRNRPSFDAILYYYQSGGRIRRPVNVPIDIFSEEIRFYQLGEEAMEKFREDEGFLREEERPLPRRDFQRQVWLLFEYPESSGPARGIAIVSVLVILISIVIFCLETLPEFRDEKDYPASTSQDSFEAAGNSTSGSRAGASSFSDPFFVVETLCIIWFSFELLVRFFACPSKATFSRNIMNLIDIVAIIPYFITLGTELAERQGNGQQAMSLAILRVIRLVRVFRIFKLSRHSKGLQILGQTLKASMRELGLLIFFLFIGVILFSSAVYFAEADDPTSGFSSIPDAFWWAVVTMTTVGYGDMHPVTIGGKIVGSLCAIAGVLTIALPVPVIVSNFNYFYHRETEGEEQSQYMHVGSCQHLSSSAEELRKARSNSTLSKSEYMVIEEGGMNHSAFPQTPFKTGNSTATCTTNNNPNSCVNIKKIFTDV

In the case of margatoxin (MgTx) (from UniProt P40755), the equilibrium dissociation constant (Kd) in the data set with Kv1.3 (Homo sapiens) was 11.7 pM; with Kv1.2 (Homo sapiens), 6.4 pM.
